Experiments:
[1] = biological target: Sox2 full length (Homo sapiens) (UniProt P48431); experiment: FP; conditions: 10 mM Tris-HEPES pH 7.5, 8% Ficoll, 0.05% NP-40, 135 mM KCl, 15 mM NaCl, 1 mM DTT, 0.1 mg/mL BSA; 2 nM DNA or 3 nM RNA; low values mean tight binding
[2] = biological target: Sox2-HMG (thrombin cleaved) (Homo sapiens) (UniProt P48431); experiment: FP; conditions: 10 mM Tris-HEPES pH 7.5, 8% Ficoll, 0.05% NP-40, 135 mM KCl, 15 mM NaCl, 1 mM DTT, 0.1 mg/mL BSA; 2 nM DNA or 3 nM RNA; low values mean tight binding
Sox2-HMG (thrombin cleaved) (Homo sapiens), sequence (P48431 other isoform, or with tags, fused parts or gaps): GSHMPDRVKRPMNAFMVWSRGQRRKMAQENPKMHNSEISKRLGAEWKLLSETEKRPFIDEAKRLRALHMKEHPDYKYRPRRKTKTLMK

Sox2-HMG (Homo sapiens) = Sox2-HMG (Homo sapiens) (UniProt P48431); experiment: fluorescence anisotropy; conditions: 10 mM Tris-HEPES pH 7.5, 135 mM KCl, 15 mM NaCl, 1 mM DTT, 8% Ficoll, 0.05% NP-40, 0.1 mg/mL BSA; 2 nM DNA or 3 nM RNA; room temperature (stated for …)
Sox2-HMG (Homo sapiens), sequence (P48431 40-123): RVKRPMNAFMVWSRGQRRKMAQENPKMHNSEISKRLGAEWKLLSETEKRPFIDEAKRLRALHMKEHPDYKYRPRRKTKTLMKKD

[3] = biological target: Sox2 full length (Homo sapiens) (UniProt P48431); experiment: fluorescence anisotropy; conditions: 10 mM Tris-HEPES pH 7.5, 135 mM KCl, 15 mM NaCl, 1 mM DTT, 8% Ficoll, 0.05% NP-40, 0.1 mg/mL BSA; 2 nM DNA or 3 nM RNA; room temperature (stated for …)

Sox2 full length (Homo sapiens), sequence (P48431 whole entry): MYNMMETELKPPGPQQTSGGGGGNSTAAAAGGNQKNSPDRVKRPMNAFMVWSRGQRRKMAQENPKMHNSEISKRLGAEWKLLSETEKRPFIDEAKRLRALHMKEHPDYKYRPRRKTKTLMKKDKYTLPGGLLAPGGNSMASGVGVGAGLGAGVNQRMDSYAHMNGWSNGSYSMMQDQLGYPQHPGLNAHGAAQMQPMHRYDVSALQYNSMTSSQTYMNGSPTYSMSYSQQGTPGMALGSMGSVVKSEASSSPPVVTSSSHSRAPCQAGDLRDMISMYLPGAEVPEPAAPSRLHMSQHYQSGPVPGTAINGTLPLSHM

| Substance | Kd [1] [nM] | Kd [2] [nM] | Kd (Sox2-HMG (Homo sapiens)) [nM] | binding signal (fold weaker than FGF4) [3] |
| --- | --- | --- | --- | --- |
| GGAAGAAGUGAAAUCACUAUAUUUAGAAACGAAUGCUACCAUCCCACCCCAACUACAUGUUCAGGUUAAAUGCGUGCACAUCCUGGUAGCUGGAACAUCUGUUUCUAGCUUGUUGUUCCUCUUGGCUGCUUUUCAAUUGGAUUUCCUCGAGCAGGUCCCAGGCUUGUCACUGCAGCCAGGGUCUGUUAACCAUCACCACUGGUUCUACAUUAAGUAGGAGGUUCAGGGCUAAGCUAAUAACUCGCCUGCCUUUCUGACUGAUCACAGUGAUGUUCGCCGUGGCCACUUAUCAUGCGGGCUCCUUUGGGAGGGUGCUCUUCUUUGUCUGUACCUCUGGGUGGAAAGGGCGAAUUC [ES2 lncRNA 1-354] | 17.5 | 25.6 | 26 | – |
| dsDNA w/o binding site | – | – | – | > 200 |
| ssDNA with consensus site | – | – | – | > 200 |

Source: paper PMC7156710
